Reference: patent US10138280B2, “Polypeptides targeting glycosylated MUC2 proteins, methods of synthesis, their nucleic acids and uses thereof” (INSTITUT PASTEUR, priority 2011, dated 2018)

Assays:
[1] = tested on: rabbit colonic mucus; assay: Mucus staining on fixed tissues, rabbit colon
Procedure: (§1) FIGS. 8A-8D. (FIG. 8A) Cell toxicity of Cy5-MUB70 tested on HT-29-MTX and Hela epithelial cells. Cell survival was assessed using Sytoxgreen dye on cultures exposed to 1 μg/mL Cy5-MUB70 from 0 to 10 h, as indicated. NS indicates P>0.05 (Student's T-test). (FIG. 8B) Rabbit colonic and ileal mucus staining on fixed tissues (PFA 4%), using Cy5-MUB70 (1 μg/mL) (blue). Actin is stained in red (Phall.-RRX). Bar is 50 μm. (FIG. 8C) Human ex vivo colon sample was incubated for 2 h with 1 μg/mL Cy5-MUB70 in a serum-free media. Resulting fluorescent staining was assessed using a two-photons microscope (see Methods). Z-projection, performed using ImageJ software, allows 3D localization of Cy5-MUB70 fluorescence signal. Bar is 100 μm. Colon scheme: firmly (f) and loosely (I) attached colonic mucus layers are represented at the surface of the epithelium (e). (FIG. 8D) Kinetics of colonic mucus with Cy5-MUB70. […] Human tissue autofluorescence is detected in the same red channel as Cy5.
FIGS. 9A-9B. (FIG. 9A) Co-localization of Muc2 (green) and Cy5-MUB (blue) performed by immunofluorescent detection on human mucus extract collected on ex vivo tissues using an epifluorescent microscope. Bar is 50 μm. (FIG. 9B) Co-localization of Muc2 (green) and Cy5-MUB (blue) observed on fixed (PFA 4%) rabbit colon samples. Actin is stained in red (Phall.RRX). Observations are performed using a confocal microscope. […]

[2] = tested on: rabbit ileal mucus; assay: Mucus staining on fixed tissues, rabbit ileum; conditions: fixed tissue, 1 μg/mL
Procedure: as §1
FIGS. 11A-11C. Mucus staining using Cy5-MUB70 on fixed tissues. (FIG. 11A) Guinea pig colon, (FIG. 11B) rabbit ileum and (FIG. 11C) mouse colon were fixed in PFA 4%. Immunofluorescent staining was performed using Cy5-MUB70 (1 μg/mL) (blue). Actin is stained in red (Phall.-RRX), Muc2 is stained in green (α-Muc2). Observations were performed using a confocal microscope. Bar is 50 μm. […]

[3] = tested on: mucus layer of differentiated HT-29 MTX human epithelial colonic cells; assay: Staining of living HT-29 MTX cells, epifluorescent microscope; type: cell-based; conditions: living differentiated HT-29 MTX; 1 μg/mL, 2 h, serum-free media
Procedure: FIGS. 3A-3B. Cy5-MUB70 colonic mucus binding property. (FIG. 3A) HT-29 MTX living cells were incubated for 2 h with Cy5-MUB70 in a serum-free media. The resulting fluorescent signal (red) was visualized at the surface of the cell layer using an epifluorescent microscope. Z-projection, performed using ImageJ software, allowed 3D localization of Cy5-MUB70 fluorescence signal in the mucus layer. Bar is 10 μm (FIG. 3B) MPE and SHG imaging of the binding of Cy5-MUB70 to the human colonic mucus. […] Human tissue autofluorescence is detected in the same red channel as Cy5.
For dot blot assay, goat α-MUC2 pAbs (sc-13312, Santa Cruz), mouse α-MUC5ac (Abcam), mouse α-MUC5b mAbs (Abcam), mouse α-MUC6 mAbs (sc-33668, Santa Cruz), mouse α-lactoferrin mAbs (sc-52048, Santa Cruz) and rabbit α-FCGBP pAbs (Sigma-Aldrich) antibodies were used at a 1:100 dilution. Corresponding HRP-Conjugated antibodies were used at a 1:1000 dilution. For staining living HT-29 MTX cells and on human colon ex vivo model, Cy5-MUB70 was incubated (1 μg/mL) in a serum starved culture medium (DMEM and RPMI respectively) for two hours at 37° C. prior observation.
Fluorescent labeled tissues and cells were observed using a widefield epifluorescent microscope (Zeiss Definite Focus), laser-scanning confocal microscope (Leica TCS SP5) or a two-photons confocal microscope (Zeiss LSM710), as indicated. […]

B1: Cy5-MUB70: Cy5-labelled MUB70 polypeptide, labelled via Cy5 maleimide on N-terminal cysteine (conjugate)
peptide: CVHVQYIDGETDQMLRQDDLDGYTDETIPYSTAEGIKKFEGDGYELFKDNFPAGEKFDNDDTNDQFYTVIF
colocalization with Muc2 ([1]; fixed rabbit colon samples): colocalization detection of Muc2 and Cy5-MUB70 | colonic mucus staining ([1]; rabbit colon, fixed tissue, 1 μg/mL): confirmed | ileal mucus staining [2]: negative results | mucus layer binding on living cells [3]: binding the mucus layer at the surface of the cells
